Results as given in the supplement of paper PMC7877785.
± gives the uncertainty stated by the source.

Test: self-splicing fitness, log relative to wild type (ln ratio); higher = more splicing; Tetrahymena group I intron in knt gene, E. coli kanamycin selection, DiMSum; sequences stand for … in CUCUCU…GGAGGGAAAAGUUAUCAGGCAUGCACCUGGUAGCUAGUCUUUAAACCAAUAGAUUGCAUCGGUUUAAAAGGCAAGACCGUCAAAUUGCGGGAAAGGGGUCAACAGCCGUUCAGUACCAAGUCUCAGGGGAAACUUUGAGAUGGCCUUGCAAAGGGUAUGGUAAUAAGCUGACGGACAUGGUCCUAACCACGCAGCCAAGUCCUAAGUCAACAGAUCUUCUGUUGAUAUGGAUGCAGUUCACAGACUAAAUGUCGGUCGGGGAAGAUGUAUUCUUCUCAUAAGAUAUAGUCGGACCUCUCCUUAAUGGGAGCUAGCGGAUGAAGUGAUGCAACACUGGAGCCGCUGGGAACUAAUUUGUAUGCGAAAGUAUAUUGAUUAGUUUUGGAGUACUCGUGGUCG
Procedure, shortened: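 A randomised library covering all eight P1ex-region intron nucleotides was built with the intron in the knt kanamycin-resistance gene on pET-22b(+) and held in E. coli BL21(DE3). Cells were grown overnight at 37°C or 30°C on LB agar, with or without 25 μg/mL kanamycin, plus 100 μg/mL carbenicillin, 50 μM IPTG and 0.2% rhamnose, and pooled colonies were amplicon-sequenced on an Illumina HiSeq 2500. DiMSum fitness is the error-weighted combination of wild-type-normalised replicate fold changes, kanamycin versus none.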

Sequence	self-splicing fitness (ln) (30 °C)	self-splicing fitness (ln) (37 °C)
GAAUAGCAAUAUUACGCCUG	-0.487 ± 0.14	-0.504 ± 0.16
GAAUAGCAAUAUUACGCGGC	-1.42 ± 0.19	-2.38 ± 0.3
GAAUAGCAAUAUUACGCGGG	–	-0.0263 ± 0.25
GAAUAGCAAUAUUACGCUUG	-0.781 ± 0.11	-0.818 ± 0.14
GAAUAGCAAUAUUACGGCGG	-2.65 ± 0.18	-0.799 ± 0.13
GAAUAGCAAUAUUACGGUUG	-1.27 ± 0.092	-0.561 ± 0.13
GAAUAGCAAUAUUACGUAAG	-2.32 ± 0.14	-0.886 ± 0.18
GAAUAGCAAUAUUACGUACA	-1.7 ± 0.14	-0.774 ± 0.2
GAAUAGCAAUAUUACGUCCG	-1.39 ± 0.15	-1.33 ± 0.22
GAAUAGCAAUAUUACGUGCG	-1.2 ± 0.074	-0.181 ± 0.094
GAAUAGCAAUAUUACGUGCU	-2.04 ± 0.14	-0.626 ± 0.12
GAAUAGCAAUAUUACGUGGA	-3.38 ± 0.25	-1.17 ± 0.15
GAAUAGCAAUAUUACGUGGU	-3.01 ± 0.15	-2.74 ± 0.24
GAAUAGCAAUAUUACGUGUC	-3.72 ± 0.27	-2.58 ± 0.14
GAAUAGCAAUAUUACGUUAG	-3.39 ± 0.2	-1.94 ± 0.18
GAAUAGCAAUAUUACGUUUU	-3.38 ± 0.16	-0.859 ± 0.11
GACAAGCAAUAUUACGAAAU	-2.47 ± 0.14	-0.766 ± 0.14
GACAAGCAAUAUUACGAACG	-1.55 ± 0.13	-0.997 ± 0.22
GACAAGCAAUAUUACGAAUG	-2.42 ± 0.1	-0.875 ± 0.098
GACAAGCAAUAUUACGAGCC	-1.08 ± 0.18	-0.366 ± 0.15
GACAAGCAAUAUUACGAGCG	-1 ± 0.074	-0.88 ± 0.088
GACAAGCAAUAUUACGAUUG	-1.77 ± 0.078	-1.54 ± 0.14
GACAAGCAAUAUUACGCCCA	-0.451 ± 0.086	-0.609 ± 0.13
GACAAGCAAUAUUACGCCCU	-0.581 ± 0.14	0.33 ± 0.15

Sequence	self-splicing fitness (ln) (30 °C)	self-splicing fitness (ln) (37 °C)
GACAAGCAAUAUUACGCCGC	-3.31 ± 0.4	-2.97 ± 0.43
GACAAGCAAUAUUACGCUGG	-2.84 ± 0.14	-1.97 ± 0.17
GACAAGCAAUAUUACGGAAC	-1.94 ± 0.1	-1.69 ± 0.17
GACAAGCAAUAUUACGGAGG	-4.57 ± 0.31	-2.08 ± 0.19
GACAAGCAAUAUUACGGCCA	-0.973 ± 0.11	-0.192 ± 0.15
GACAAGCAAUAUUACGGGCC	-1.81 ± 0.18	-1.96 ± 0.17
GACAAGCAAUAUUACGGUGG	-2.01 ± 0.066	-1.88 ± 0.092
GACAAGCAAUAUUACGUAAA	-1.75 ± 0.069	-1.09 ± 0.091
GACAAGCAAUAUUACGUAAG	-2.11 ± 0.12	-1.36 ± 0.14
GACAAGCAAUAUUACGUACG	-1.82 ± 0.077	-0.508 ± 0.091
GACAAGCAAUAUUACGUAUC	-3.31 ± 0.15	-0.876 ± 0.14
GACAAGCAAUAUUACGUUAU	-3.17 ± 0.11	-1.5 ± 0.095
GACCAGCAAUAUUACGAAUU	-0.37 ± 0.073	-0.374 ± 0.1
GACCAGCAAUAUUACGACCU	0.00245 ± 0.074	-0.389 ± 0.073
GACCAGCAAUAUUACGACGA	-0.236 ± 0.091	0.15 ± 0.1
GACCAGCAAUAUUACGAUCG	-0.875 ± 0.091	-0.444 ± 0.1
GACCAGCAAUAUUACGAUUC	-0.023 ± 0.075	-0.543 ± 0.08
GACCAGCAAUAUUACGAUUG	-2.1 ± 0.073	-1.08 ± 0.084
GACCAGCAAUAUUACGCCAG	-3.98 ± 0.28	-0.652 ± 0.19
GACCAGCAAUAUUACGCCCG	-1.72 ± 0.12	-0.754 ± 0.13
GACCAGCAAUAUUACGCGGA	-1.06 ± 0.1	-0.442 ± 0.1
GACCAGCAAUAUUACGCUUC	-2.01 ± 0.1	-1.66 ± 0.14
GACCAGCAAUAUUACGGACC	-2.21 ± 0.17	-2.38 ± 0.33
GACCAGCAAUAUUACGGAUA	-0.244 ± 0.058	0.0596 ± 0.075
